Data on 4 molecules can be found in article PMC11748629, “Unidirectional MCM translocation away from ORC drives origin licensing” (Nature Communications, 2025).

To fix the notation:
B3: Orc4 (natural protein, Saccharomyces cerevisiae)
chain: MTISEARLSPQVNLLPIKRHSNEEVEETAAILKKRTIDNEKCKDSDPGFGSLQRRLLQQLYGTLPTDEKIIFTYLQDCQQEIDRIIKQSIIQKESHSVILVGPRQSYKTYLLDYELSLLQQSYKEQFITIRLNGFIHSEQTAINGIATQLEQQLQKIHGSEEKIDDTSLETISSGSLTEVFEKILLLLDSTTKTRNEDSGEVDRESITKITVVFIFDEIDTFAGPVRQTLLYNLFDMVEHSRVPVCIFGCTTKLNILEYLEKRVKSRFSQRVIYMPQIQNLDDMVDAVRNLLTVRSEISPWVSQWNETLEKELSDPRSNLNRHIRMNFETFRSLPTLKNSIIPLVATSKNFGSLCTAIKSCSFLDIYNKNQLSNNLTGRLQSLSDLELAILISAARVALRAKDGSFNFNLAYAEYEKMIKAINSRIPTVAPTTNVGTGQSTFSIDNTIKLWLKKDVKNVWENLVQLDFFTEKSAVGLRDNATAAFYASNYQFQGTMIPFDLRSYQMQIILQELRRIIPKSNMYYSWTQL
notes: Orc4, S. cerevisiae; Subunit of m1, written alone for the contacts seen in the structures; also called Orc4 subunit of ORC; source: S. cerevisiae strain ySD-ORC, purified as a subunit of ORC

What all share (test): cryo-EM structure; OCCM^Mcm2RA: 30 nM MH-ARS1-MH DNA, 60 nM ORC, 90 nM Cdc6, 60 nM MCM-Cdt1 (Mcm2 R676A), 3 mM ATP; 25 mM HEPES pH 7.6, 100 mM potassium chloride, 10 mM magnesium acetate, 1 mM DTT; 30 °C, 30 min; 3.3 Å consensus, 3.2 Å local refinements
Holding throughout (details): both partners purified

The target of experiment [1] is T1, Origin Recognition Complex (ORC) (Saccharomyces cerevisiae, UniProt P54784 1-914; P32833 1-620; P54790 1-616; P54791 1-529; P50874 1-479; P38826 …).
T1 construct: Orc1, S. cerevisiae; Orc2, S. cerevisiae; Orc3, S. cerevisiae; Orc4, S. cerevisiae; Orc5, S. cerevisiae; Orc6, S. cerevisiae; also called ORC complex; copies: + + + + +

The next experiment deals with T2, Orc1 (Saccharomyces cerevisiae, UniProt P54784 1-914).
T2 construct: Orc1, S. cerevisiae; Subunit of m1, written alone for the contacts seen in the structures; also called Orc1 subunit of ORC; source: S. cerevisiae strain ySD-ORC, purified as a subunit of ORC
T2 sequence: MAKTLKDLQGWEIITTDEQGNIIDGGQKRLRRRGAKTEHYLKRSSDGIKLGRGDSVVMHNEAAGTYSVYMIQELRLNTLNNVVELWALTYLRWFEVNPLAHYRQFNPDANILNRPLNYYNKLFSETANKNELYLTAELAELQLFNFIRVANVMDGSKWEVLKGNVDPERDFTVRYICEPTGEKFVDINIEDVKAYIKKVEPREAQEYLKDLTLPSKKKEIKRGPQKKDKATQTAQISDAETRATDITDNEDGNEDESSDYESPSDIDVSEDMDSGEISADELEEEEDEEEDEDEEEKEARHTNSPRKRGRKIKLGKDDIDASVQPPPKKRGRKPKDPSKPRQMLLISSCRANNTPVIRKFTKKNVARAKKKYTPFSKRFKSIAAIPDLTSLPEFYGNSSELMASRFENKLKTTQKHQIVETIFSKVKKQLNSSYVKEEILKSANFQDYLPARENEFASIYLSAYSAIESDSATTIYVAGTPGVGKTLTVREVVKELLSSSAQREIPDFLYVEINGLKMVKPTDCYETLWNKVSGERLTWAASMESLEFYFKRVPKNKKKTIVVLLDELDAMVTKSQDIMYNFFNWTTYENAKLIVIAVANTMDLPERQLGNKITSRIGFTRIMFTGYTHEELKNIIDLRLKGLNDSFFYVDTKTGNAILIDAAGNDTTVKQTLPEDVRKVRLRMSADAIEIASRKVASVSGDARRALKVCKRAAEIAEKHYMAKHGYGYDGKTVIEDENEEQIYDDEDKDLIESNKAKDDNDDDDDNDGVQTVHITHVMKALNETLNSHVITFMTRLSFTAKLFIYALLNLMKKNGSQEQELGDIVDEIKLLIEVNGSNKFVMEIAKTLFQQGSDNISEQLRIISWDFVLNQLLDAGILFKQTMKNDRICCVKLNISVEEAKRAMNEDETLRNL

Another experiment deals with T3, Mcm6 (Saccharomyces cerevisiae, UniProt P53091 1-1017).
T3 construct: Mcm6, S. cerevisiae; Subunit of m4 and m7, written alone for the contacts seen in the structures; also called Mcm6 subunit of MCM; source: S. cerevisiae strains yGC216 and yGC226, purified as a subunit of MCM-Cdt1

For a further experiment, the target named is T4, Orc3 (Saccharomyces cerevisiae, UniProt P54790 1-616).
T4 construct: Orc3, S. cerevisiae; Subunit of m1, written alone for the contacts seen in the structures; also called Orc3 subunit of ORC; source: S. cerevisiae strain ySD-ORC, purified as a subunit of ORC
T4 sequence: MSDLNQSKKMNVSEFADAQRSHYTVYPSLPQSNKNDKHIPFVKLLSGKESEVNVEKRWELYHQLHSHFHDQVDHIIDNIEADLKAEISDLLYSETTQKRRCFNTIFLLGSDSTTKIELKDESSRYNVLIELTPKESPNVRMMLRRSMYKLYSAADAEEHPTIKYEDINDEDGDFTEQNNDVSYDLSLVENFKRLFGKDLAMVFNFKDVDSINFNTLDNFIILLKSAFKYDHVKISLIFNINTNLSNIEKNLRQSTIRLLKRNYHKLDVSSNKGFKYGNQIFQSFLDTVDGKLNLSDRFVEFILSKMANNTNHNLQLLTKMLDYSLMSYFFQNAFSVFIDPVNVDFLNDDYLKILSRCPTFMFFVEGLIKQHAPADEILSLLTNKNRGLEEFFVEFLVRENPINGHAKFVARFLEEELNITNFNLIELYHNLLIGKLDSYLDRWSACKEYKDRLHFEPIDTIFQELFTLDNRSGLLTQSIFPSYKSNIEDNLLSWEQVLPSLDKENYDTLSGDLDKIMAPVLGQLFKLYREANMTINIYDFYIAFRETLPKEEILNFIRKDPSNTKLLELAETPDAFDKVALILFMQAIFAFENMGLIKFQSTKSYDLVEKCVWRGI

The experiment “Orc4” has as its target B3.

T3 sequence (P53091 whole entry): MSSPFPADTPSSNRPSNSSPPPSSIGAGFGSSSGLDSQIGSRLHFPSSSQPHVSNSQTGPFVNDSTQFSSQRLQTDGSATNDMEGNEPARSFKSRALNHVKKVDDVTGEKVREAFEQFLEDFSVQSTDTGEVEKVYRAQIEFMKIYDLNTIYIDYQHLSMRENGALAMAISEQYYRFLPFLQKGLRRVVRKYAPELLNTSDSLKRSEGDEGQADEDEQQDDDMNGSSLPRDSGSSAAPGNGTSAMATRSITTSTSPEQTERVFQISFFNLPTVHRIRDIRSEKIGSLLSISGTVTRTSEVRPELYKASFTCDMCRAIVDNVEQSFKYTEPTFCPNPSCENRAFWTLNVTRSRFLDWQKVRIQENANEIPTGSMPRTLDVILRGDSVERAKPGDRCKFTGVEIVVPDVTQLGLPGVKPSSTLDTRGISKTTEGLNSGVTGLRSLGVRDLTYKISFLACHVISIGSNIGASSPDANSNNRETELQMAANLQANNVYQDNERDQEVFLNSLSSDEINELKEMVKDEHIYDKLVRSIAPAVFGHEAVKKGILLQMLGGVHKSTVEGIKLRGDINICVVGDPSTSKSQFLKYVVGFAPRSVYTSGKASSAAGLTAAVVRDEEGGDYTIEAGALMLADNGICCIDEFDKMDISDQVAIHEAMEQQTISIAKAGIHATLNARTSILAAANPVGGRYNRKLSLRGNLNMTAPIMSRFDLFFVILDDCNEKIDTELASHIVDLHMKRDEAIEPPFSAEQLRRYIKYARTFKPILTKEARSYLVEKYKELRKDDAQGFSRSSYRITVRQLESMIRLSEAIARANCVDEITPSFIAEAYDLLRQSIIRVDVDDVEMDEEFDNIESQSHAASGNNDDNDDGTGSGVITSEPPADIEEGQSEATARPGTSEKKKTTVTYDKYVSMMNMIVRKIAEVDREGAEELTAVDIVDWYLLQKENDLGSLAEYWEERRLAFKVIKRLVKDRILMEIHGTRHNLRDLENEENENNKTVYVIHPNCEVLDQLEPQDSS
T1 sequence (P32833 whole entry, chain 2 of 2): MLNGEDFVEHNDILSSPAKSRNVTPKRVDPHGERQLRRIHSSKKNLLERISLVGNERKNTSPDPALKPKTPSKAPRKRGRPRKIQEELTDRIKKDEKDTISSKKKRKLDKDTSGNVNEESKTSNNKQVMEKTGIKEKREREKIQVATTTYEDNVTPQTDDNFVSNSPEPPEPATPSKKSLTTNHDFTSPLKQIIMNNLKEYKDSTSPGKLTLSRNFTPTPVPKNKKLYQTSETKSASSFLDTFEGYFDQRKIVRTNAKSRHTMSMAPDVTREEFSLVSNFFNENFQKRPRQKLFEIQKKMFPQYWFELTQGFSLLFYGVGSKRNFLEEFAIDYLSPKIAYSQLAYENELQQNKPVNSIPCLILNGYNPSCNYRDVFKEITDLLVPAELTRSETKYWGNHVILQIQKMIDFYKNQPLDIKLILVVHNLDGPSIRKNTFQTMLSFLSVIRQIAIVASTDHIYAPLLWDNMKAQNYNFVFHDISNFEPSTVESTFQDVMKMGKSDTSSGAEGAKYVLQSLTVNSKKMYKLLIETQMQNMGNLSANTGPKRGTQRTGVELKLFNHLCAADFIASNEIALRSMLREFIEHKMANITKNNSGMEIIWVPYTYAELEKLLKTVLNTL
T1 sequence (P38826 whole entry, chain 6 of 2): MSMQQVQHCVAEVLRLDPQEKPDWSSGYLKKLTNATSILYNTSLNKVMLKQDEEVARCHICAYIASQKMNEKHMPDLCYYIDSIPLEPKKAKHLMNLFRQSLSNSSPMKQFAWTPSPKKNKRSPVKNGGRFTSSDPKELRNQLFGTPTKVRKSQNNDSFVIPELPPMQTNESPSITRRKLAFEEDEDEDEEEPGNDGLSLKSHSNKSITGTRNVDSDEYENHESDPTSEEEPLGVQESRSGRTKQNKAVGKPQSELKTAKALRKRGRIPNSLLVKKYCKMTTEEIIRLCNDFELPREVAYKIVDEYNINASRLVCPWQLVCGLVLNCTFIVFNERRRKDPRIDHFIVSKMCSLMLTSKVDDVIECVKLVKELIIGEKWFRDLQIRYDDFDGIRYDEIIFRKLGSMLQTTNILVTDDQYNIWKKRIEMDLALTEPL

B1: Saccharomyces cerevisiae Cdc6 (natural protein, UniProt P09119 1-513, looked up)
chain: MSAIPITPTKRIRRNLFDDAPATPPRPLKRKKLQFTDVTPESSPEKLQFGSQSIFLRTKALLQKSSELVNLNSSDGALPARTAEYEQVMNFLAKAISEHRSDSLYITGPPGTGKTAQLDMIIRQKFQSLPLSLSTPRSKDVLRHTNPNLQNLSWFELPDGRLESVAVTSINCISLGEPSSIFQKIFDSFQDLNGPTLQIKNMQHLQKFLEPYHKKTTFVVVLDEMDRLLHANTSETQSVRTILELFLLAKLPTVSFVLIGMANSLDMKDRFLSRLNLDRGLLPQTIVFQPYTAEQMYEIVIQKMSSLPTIIFQPMAIKFAAKKCAGNTGDLRKLFDVLRGSIEIYELEKRFLLSPTRGSLNSAQVPLTPTTSPVKKSYPEPQGKIGLNYIAKVFSKFVNNNSTRTRIAKLNIQQKLILCTIIQSLKLNSDATIDESFDHYIKAITKTDTLAPLQRNEFLEICTILETCGLVSIKKTKCKGKTKRFVDKIDVDLDMREFYDEMTKISILKPFLH
notes: Cdc6, S. cerevisiae; source: E. coli BL21(CodonPlus)-RIL, plasmid pAM3, purified (glutathione sepharose, preScission protease, hydroxyapatite)
In the case of B1, the binding result (in experiment [1]; with Orc1) was “binds” throughout.

B2: Mcm2 R676A (natural protein, Saccharomyces cerevisiae)
chain: MSDNRRRRREEDDSDSENELPPSSPQQHFRGGMNPVSSPIGSPDMINPEGDDNEVDDVPDIDEVEEQMNEVDLMDDNMYEDYAADHNRDRYDPDQVDDREQQELSLSERRRIDAQLNERDRLLRNVAYIDDEDEEQEGAAQLDEMGLPVQRRRRRRQYEDLENSDDDLLSDMDIDPLREELTLESLSNVKANSYSEWITQPNVSRTIARELKSFLLEYTDETGRSVYGARIRTLGEMNSESLEVNYRHLAESKAILALFLAKCPEEMLKIFDLVAMEATELHYPDYARIHSEIHVRISDFPTIYSLRELRESNLSSLVRVTGVVTRRTGVFPQLKYVKFNCLKCGSILGPFFQDSNEEIRISFCTNCKSKGPFRVNGEKTVYRNYQRVTLQEAPGTVPPGRLPRHREVILLADLVDVSKPGEEVEVTGIYKNNYDGNLNAKNGFPVFATIIEANSIKRREGNTANEGEEGLDVFSWTEEEEREFRKISRDRGIIDKIISSMAPSIYGHRDIKTAVACSLFGGVPKNVNGKHSIRGDINVLLLGDPGTAKSQILKYVEKTAHRAVFATGQGASAVGLTASVRKDPITKEWTLEGGALVLADKGVCLIDEFDKMNDQDRTSIHEAMEQQSISISKAGIVTTLQARCSIIAAANPNGGRYNSTLPLAQNVSLTEPILSAFDILCVVRDLVDEEADERLATFVVDSHVRSHPENDEDREGEELKNNGESAIEQGEDEINEQLNARQRRLQRQRKKEEEISPIPQELLMKYIHYARTKIYPKLHQMDMDKVSRVYADLRRESISTGSFPITVRHLESILRIAESFAKMRLSEFVSSYDLDRAIKVVVDSFVDAQKVSVRRQLRRSFAIYTLGH
notes: Mcm2, S. cerevisiae; Subunit of m4, written alone for the contacts seen in OCCM^Mcm2RA; also called Mcm2RA; source: S. cerevisiae strain yGC216, purified as a subunit of MCM-Cdt1
As for B2, in the experiment with Mcm6, the binding result is “binds”. In the case of B3, in the experiment with Orc1, the binding result is “binds”.

B4: Orc5 (natural protein, Saccharomyces cerevisiae)
chain: MNVTTPEVAFREYQTNCLASYISADPDITPSNLILQGYSGTGKTYTLKKYFNANPNLHAVWLEPVELVSWKPLLQAIARTVQYKLKTLYPNIPTTDYDPLQVEEPFLLVKTLHNIFVQYESLQEKTCLFLILDGFDSLQDLDAALFNKYIKLNELLPKDSKINIKFIYTMLETSFLQRYSTHCIPTVMFPRYNVDEVSTILVMSRCGELMEDSCLRKRIIEEQITDCTDDQFQNVAANFIHLIVQAFHSYTGNDIFALNDLIDFKWPKYVSRITKENIFEPLALYKSAIKLFLSTDDNLSENGQGESAITTNRDDLENSQTYDLSIISKYLLIASYICSYLEPRYDASIFSRKTRIIQGRAAYGRRKKKEVNPRYLQPSLFAIERLLAIFQAIFPIQGKAESGSLSALREESLMKANIEVFQNLSELHTLKLIATTMNKNIDYLSPKVRWKVNVPWEIIKEISESVHFNISDYFSDIHE
notes: Orc5, S. cerevisiae; Subunit of m1, written alone for the contacts seen in the structures; also called Orc5 subunit of ORC; source: S. cerevisiae strain ySD-ORC, purified as a subunit of ORC
In the case of B4, the binding result in the experiment with Orc3 and with Orc4 was “binds” each time.
